Measured values published in patent US20100303814A1 (VIVENTIA BIOTECHNOLOGIES, published 2010).
Where no end group is shown, it is not given here. The star is where a group is joined. Biotin = O=C1N[C@H]2[C@H](CS[C@H]2CCCCC(=O)*)N1

Key:
[1] = molecular target: T1, prostate stem cell antigen (PSCA) (human, UniProt O43653 12-83); assay: immunoprecipitation with VB1-213, in-solution digest, mass spectrometry
T1 sequence: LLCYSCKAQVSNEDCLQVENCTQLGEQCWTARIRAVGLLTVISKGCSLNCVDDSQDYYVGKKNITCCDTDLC
Description: A pre-clearing step using protein-G sepharose alone was the first step in the purification of the antigen prior to the addition of the antibody. In certain cases, pre-clearing was performed twice to add more stringency to the assay. A total of 50 μg of antibody was used as the precipitating agent in the mixture. The antigen-antibody mixtures were nutated overnight at 4° C. using buffer conditions that mimicked physiological conditions. Care was taken to ensure that protease inhibitors were used in every step of the antigen isolation process.
The extracted peptides were concentrated and desalted using μ-C18 columns and used for MS analysis. Two distinct proteins were identified, in all three cell lines, as “Mixture1”, consisting of HnRNPG+Prostate stem cell antigen (PSCA). HnRNPG and PSCA were identified as a “Mixture1”, each with 76% and 95% sequence coverage and a highly significant combined score of 413. The sequence coverage and peptides corresponding to PSCA are shown in FIGS. 18 and 19 and Table 7 (SEQ ID NO: 18 to 22). The peptides isolated by this method corresponding to HnRNPG as shown in Table 8 (SEQ ID NO: 72 to 110).

[2] = molecular target: T2, antigen bound by VB1-213 on A-375 tumor cells; assay: flow cytometry saturation curve on A-375 cells, Lineweaver-Burk method
T2 construct: Placeholder target for the KD measured on whole A-375 cells; also called A-375 carcinoma cells
Description: Flow cytometry was used to assess binding affinity (C. A. Benedict, A. J. MacKrell, W. F. Anderson, J. Immunol. Methods 201, 223 (1997)). A range of antibody concentrations were tested against a fixed number of tumor cells (A-375) for 2 hours to obtain a saturation curve. Values and graphical analysis were generated using Sigma Plot (Jandel Scientific, San Rafael, Calif.). The inverse of the determined median fluorescence was plotted as a function of the inverse of antibody concentration to determine KD by the Lineweaver-Burk method.

[3] = molecular target: T3, PSPep1 (Biotin TARIRAVGLLTVISK) (human); assay: ELISA on peptide-coated plate
T3 construct: Synthetic peptide, part of the immunogen of the commercial anti-PSCA antibodies, 1823.9 amu
T3 peptide: Biotin-TARIRAVGLLTVISK
Description: (§1) Peptide solutions were diluted 1-in-100 with Hank's buffered saline solution (HBSS) containing 0.5% formaldehyde. 100 μL of diluted peptide solution was distributed to each well in a 96-well plate. The plates were incubated at room temperature for 1 hour. The supernatant was removed and the plates were placed uncovered in a 37° C. incubator for 16-18 hours. The peptide-coated plates were placed in plastic bags and stored at 2-8° C. until required.
(§2) The plates were washed as previously described with the wash buffer (PBS containing 0.5% Tween 20). The plates were incubated with 1:6000 dilution of anti-human IgG-HRP for one hour at room temperature. The plates were washed as previously described. 100 μL of TMB substrate (TMB peroxidase substrate KPL cat# 50-76-00) was added to each well and incubated for 5-10 minutes in the dark. The reaction was terminated by adding 100 μL of 1M phosphoric acid to each well. The optical density was measured at 450 nm using an ELISA plate reader.

[4] = molecular target: T4, PSPep3 (Biotin LCNASGAHALQ), negative peptide (human); assay: ELISA on peptide-coated plate
T4 construct: Synthetic peptide derived from PSCA, 1306.59 amu; also called PSPep3 (Negative)
T4 peptide: Biotin-LCNASGAHALQ
Description: as §1, §2

binding result [1]: binds
Kd [2]: 627 nM
binding result [3]: no binding
binding result [4]: no binding
B1: VB1-213 monoclonal antibody (antibody, human IgG1, V domains shown)
VH: EVQLLESGGGLVQPGGSLRLSCAASGFTFRSYAMSWVRQAPGKGLEWVSTISGRGVTTYYADSVKGRFTISRDNSKNTLYLQMNSLRADDTALYYCAKDRTRYYGMDVWGQGTTVTVSS
VL: SYELTQPPSVSVSPGQTASITCSGNKLGDKYACWYQQKSGQSPVLVIYQDSKRPSGIPERFSGSNSGNTATLTISGTQALDEADYYCQAWDNSTAVFGGGTKLTVLG
notes: Human IgG1, lambda monoclonal antibody from a hybridoma (lymph node cells of an ovarian cancer patient fused with MFP-2); no constant regions for the IgG as tested
